In PMC11277083 (International Journal of Molecular Sciences, 2024) one finds Kd, koff and kon data, which are given here for 1 molecule.

In this assay the target is ACE2 protein (recombinant human, CUSABIO no. CSB-MP866317HU) (human, UniProt Q9BYF1 18-740). The assay is described as follows: SPR; […] (50 ug/mL in sodium acetate pH 4.0, 10 uL/min, 420 s); […]; Biacore T200; […]. As to conditions: both partners purified. Background: Surface plasmon resonance follows binding to a sensor surface in real time, without labels.
Sequence of ACE2 protein (recombinant human, CUSABIO no. CSB-MP866317HU) (Q9BYF1 18-740): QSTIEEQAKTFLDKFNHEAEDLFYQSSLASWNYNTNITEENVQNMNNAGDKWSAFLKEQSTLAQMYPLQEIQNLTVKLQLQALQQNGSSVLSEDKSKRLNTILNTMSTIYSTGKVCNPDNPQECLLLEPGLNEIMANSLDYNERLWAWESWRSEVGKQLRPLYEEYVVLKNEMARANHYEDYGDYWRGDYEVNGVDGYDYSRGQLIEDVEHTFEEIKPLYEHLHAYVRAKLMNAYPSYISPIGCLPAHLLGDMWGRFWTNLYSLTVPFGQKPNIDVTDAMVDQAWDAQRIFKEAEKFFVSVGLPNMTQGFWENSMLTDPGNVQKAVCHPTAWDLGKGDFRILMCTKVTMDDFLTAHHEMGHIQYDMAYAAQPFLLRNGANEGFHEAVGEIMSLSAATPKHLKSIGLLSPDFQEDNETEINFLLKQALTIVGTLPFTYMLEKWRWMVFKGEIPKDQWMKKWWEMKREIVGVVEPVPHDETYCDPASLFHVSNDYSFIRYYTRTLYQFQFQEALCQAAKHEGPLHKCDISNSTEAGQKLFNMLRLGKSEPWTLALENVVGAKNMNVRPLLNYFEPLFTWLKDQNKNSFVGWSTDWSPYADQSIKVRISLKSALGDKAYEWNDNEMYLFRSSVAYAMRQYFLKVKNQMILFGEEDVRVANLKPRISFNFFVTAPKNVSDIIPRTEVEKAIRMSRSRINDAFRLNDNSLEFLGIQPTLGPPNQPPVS

With KKCHFWPFPW [KKCH peptide], the Kd – broadly, the free concentration of one partner at which half of the binding sites on the other are occupied at equilibrium, for simple one-to-one binding – worked out at 0.624 µM; the koff (usually a measure of how fast the partners let go of each other) was 0.0958 s⁻¹; the kon – broadly, the rate constant with which the complex forms – is 154000 M⁻¹ s⁻¹.
